Experimental findings from US20250034594A1, “RNA-GUIDED GENOME RECOMBINEERING AT KILOBASE SCALE” (THE BOARD OF TRUSTEES OF THE LELAND STANFORD JUNIOR …, priority 2021, published 2025) are described below.

One assay relates to DYNLT1 locus. Put plainly: mKate knock-in gene-editing assay, RecE/RecT homologs, DYNLT1 locus. The assay is classed as cell-based, human. Particulars: HEK293 cells, MCP fusion, n=3. The protocol: (§1) Transfection HEK293T cells were seeded into 96-well plates (Corning) 12-24 hours prior to transfection at a density of 30,000 cells/well, and 250 ng of total DNA was transfected per well. HeLa and HepG2 cells were seeded into 48-well plates (Corning) one day prior to transfection at a density of 50,000 and 30,000 cells/well respectively, and 400 ng of total DNA was transfected per well. Transfections were performed with Lipofectamine 3000 (Life Technologies) following the manufacturer's instructions.
(§2) Fluorescence-activated cell sorting (FACS) mKate knock-in efficiency was analyzed on a CytoFLEX flow cytometer (Beckman Coulter; Stanford Stem Cell FACS Core). 72 hours after transfection, cells were washed once with PBS and dissociated with TrypLE Express Enzyme (Thermo Fisher Scientific). Cell suspension was then transferred to a 96-well U-bottom plate (Thermo Fisher Scientific) and centrifuged at 300×G for 5 minutes. After removing the supernatant, pelleted cells were resuspended with 50 μl 4% FBS in PBS, and cells were sorted within 30 minutes of preparation.
(§3) 15 different species of microbes having RecE/RecT proteins were selected for a screen of various RecE and RecT proteins across the microbial kingdom (Table 3). Each protein was codon-optimized and synthesized. As previously described for E. coli RecE/RecT based REDIT systems, each protein was fused via E-XTEN linker to the MCP protein with additional nuclear localization signal. mKate knock-in gene-editing assay was used to measure efficiencies at DYNLT1 locus (FIG. 26A, Table 4) and HSP90AA1 locus (FIG. 26B, Table 4).

The next assay relates to HSP90AA1 locus. As to the kind of experiment: mKate knock-in gene-editing assay, RecE/RecT homologs, HSP90AA1 locus. The assay is classed as cell-based, human. To be noted: HEK293 cells, MCP fusion, n=3. The protocol: as §1, §2, §3

B1: Homolog_E11: RecE, Salmonella enterica; SEQ ID NO: 134 (protein, listed as Salmonella enterica)
chain: DRGLLTKEWRKGNRVSRITRTASGANAGGGNLTDRGEGFVHDLTSLARDVATGVLARSMDVDIYNLHPAHAKRVEEIIAENKPPFSVFRDKFITMPGGLDYSRAIVVASVKEAPIGIEVIPAHVTEYLNKVLTETDHANPDPEIVDIACGRSSAPMPQRVTEEGKQDDEEKPQPSGAMADEQATAETVEPNATEHHQNTQPLDAQSQVNSVDAKYQELRAELQEARKNIPSKNPVDADKLLAASRGEFVDGISDPNDPKWVKGIQTRDSVYQNQPETEKISPDAKQPEPVVQQEPETVCNACGQTGGDNCPDCGAVMGDATYQETFGEENQVEAKEKDPEEMEGAEHPHNENAGSDPHRDCSDETGEVADPVIVEDIEPGIYYGISNENYHAGPGVSKSQLDDIADTPALYLWRKNAPVDTTKTKTLDLGTAFHCRVLEPEEFSNRFIVAPEFNRRTNAGKEEEKAFLMECASTGKTVITAEEGRKIELMYQSVMALPLGQWLVESAGHAESSIYWEDPETGILCRCRPDKIIPEFHWIMDVKTTADIQRFKTAYYDYRYHVQDAFYSDGYEAQFGVQPTFVFLVASTTVECGRYPVEIFMMGEEAKLAGQQEYHRNLRTLADCLNTDEWPAIKTLSLPRWAKEYAND
For B1, the “Mean mKate+ (%), DYNLT1” value in the assay on DYNLT1 locus is given as 7.0567%. The “Mean mKate+ (%), HSP90AA1” value in the assay with HSP90AA1 locus was 3.1167%.

B2: Homolog_T11: RecT, Salmonella enterica; SEQ ID NO: 133 (protein, listed as Salmonella enterica)
chain: MTKQPPIAKADLQKTQGNRAPAAVNDKDVLCVINSPAMKAQLAAALPRHMTAERMIRIATTEIRKVPELRNCDSTSFIGAIVQCSQLGLEPGSALGHAYLLPFGNGKAKNGKKNVQLIIGYRGMIDLARRSGQIISLSARVVRECDEFSYELGLDEKLVHRPGENEDAPITHVYAVAKLKDGGVQFEVMTKKQVEKVRDTHSKAAKNAASKGASSIWDEHFEDMAKKTVIRKLFKYLPVSIEIQRAVSMDGKEVETINPDDISVIAGEYSVIDNPEE
As to B2, in the assay with DYNLT1 locus, the “Mean mKate+ (%), DYNLT1” value worked out at 9.8467%. The “Mean mKate+ (%), HSP90AA1” value in the assay with HSP90AA1 locus worked out at 4.9233%.

B3: Homolog_E10: RecE, Shigella sonnei; SEQ ID NO: 132 (protein, listed as Shigella sonnei)
chain: DRGLLTKEWRKGNRVSRITRTASGANAGGGNLTDRGEGFVHDLTSLARDIATGVLARSMDVDIYNLHPAHAKRIEEIIAENKPPFSVFRDKFITMPGGLDYSRAIVVASVKEAPIGIEVIPAHVTAYLNKVLTETDHANPDPEIVDIACGRSSAPMPQRVTEEGKQDDEEKLQPSGTTADEQGEAETMEPDATKHHQDTQPLDAQSQVNSVDAKYQELRAELHEARKNIPSKNPVDADKLLAASRGEFVDGISDPNDPKWVKGIQTRDSVYQNQPETEKTSPDMKQPEPVVQQEPEIAFNACGQTGGDNCPDCGAVMGDATYQETFDEENQVEAKENDPEEMEGAEHPHNENAGSDPHRDCSDETGEVADPVIVEDIEPGIYYGISNENYHAGPGVSKSQLDDIADTPALYLWRKNAPVDTTKTKTLDLGTAFHCRVLEPEEFSNRFIVAPEFNRRTNAGKEEEKAFLMECASTGKMVITAEEGRKIELMYQSVMALPLGQWLVESAGHAESSIYWEDPETGILCRCRPDKIIPEFHWIMDVKTTADIQRFKTAYYDYRYHVQDAFYSDGYEAQFGVQPTFVFLVASTTIECGRYPVEIFMMGEEAKLAGQLEYHRNLRTLADCLNTDEWPAIKTLSLPRWAKEYAND
As for B3, the “Mean mKate+ (%), DYNLT1” value with DYNLT1 locus is on record as 4.4000%. Besides, the “Mean mKate+ (%), HSP90AA1” value in the assay on HSP90AA1 locus is reported as 3.5900%.

B4: Homolog_E12: RecE, Acetobacter; SEQ ID NO: 136 (protein, listed as Acetobacter sp.)
chain: MVISKSGIYDLTNEQYHADPCPEMSLSSSGARDLLSSCPAKFIAAKQLPQQNKRCFDIGSAGHLMVLEPHLFDQKVCEIKHPDWRTKAAKEERDAAYAEGRIPLLSREVEDIRAMHSVVWRDSLGARAFSGGKAEQSLVWRDEEFGIWCRLRPDYVPNNAVRIFDYKTATNGSPDAFMKEIYNRGYHQQAAWYLDGYEAVTGHRPREFWFVVQEKTAPFLLSFFQMDEMSLEIGRTLNRQAKGIFAWCLRNNCWPGYQPEVDGKVRFFTTSPPAWLVREYEFKNEHGAYEPPEIKRKEVA
For the molecule B4, the “Mean mKate+ (%), DYNLT1” value in the assay with DYNLT1 locus was determined as 5.2633%. Besides, the “Mean mKate+ (%), HSP90AA1” value in the assay on HSP90AA1 locus was 6.0800%.

B5: Homolog_E13: RecE, Salmonella enterica subsp. enterica serovar Javiana str. 10721; SEQ ID NO: 138 (protein, listed as Salmonella enterica)
chain: MYYDIPNEAYHAGPGVSKSQLDDIADTPAIYLWRKNAPVDTEKTKSLDTGTAFHCRVLEPEEFSKRFIIAPEFNRRTSAGKEEEKTFLEECTRTGRTVLTAEEGRKIELMYQSVMALPLGQWLVESAGYAESSVYWEDPETGILCRCRPDKIIPEFHWIMDVKTTADIQRFRTAYYDYRYHVQDAFYSDGYRAQFGEIPTFVFLVASTTAECGRYPVEIFMMGEDAKLAGQREYRRNLQTLAECLNNDEWPAIKTLSLPRWAKENANA
Take B5: in the assay with DYNLT1 locus, the “Mean mKate+ (%), DYNLT1” value turned out to be 5.6333%. For the same molecule, in the assay with HSP90AA1 locus, the “Mean mKate+ (%), HSP90AA1” value is on record as 5.6900%.

B6: Homolog_T12: RecT, Acetobacter; SEQ ID NO: 135 (protein, listed as Acetobacter sp.)
chain: MNAPQKQNTRAAVKKISPQEFAEQFAAIIPQVKSVLPAHVTFEKFERVVRLAVRKNPDLLTCSPASLFMACIQAASDGLLPDGREGAIVSRWSSKKSCNEASWMPMVAGLMKLARNSGDIASISSQVVFEGEHFRVVLGDEERIEHERDLGKTGGKIVAAYAVARLKDGSDPIREIMSWGQIEKIRNTNKKWEWGPWKAWEDEMARKTVIRRLAKRLPMSTDKEGERLRSAIERIDSLVDISANVDAPQIAADDEFAAAAHGVEPQQIAAPDLIGRLAQMQSLEQVQDIEPQVSHAIQEADKRGDSDTANALDAALQSALSRTSTAKEEVPA
Regarding B6, in the assay on DYNLT1 locus, the “Mean mKate+ (%), DYNLT1” value is 8.5900%. For the same molecule, in the assay with HSP90AA1 locus, the “Mean mKate+ (%), HSP90AA1” value was determined as 5.2733%.

B7: Homolog_T10: RecT, Shigella sonnei; SEQ ID NO: 131 (protein, listed as Shigella sonnei)
chain: MTKQPPIAKADLQKTQENRAPAAIKNNDVISFINQPSMKEQLAAALPRHMTAERMIRIATTEIRKVPALGNCDTMSFVSAIVQCSQLGLEPGSALGHAYLLPFGNKNEKSGKKNVQLIIGYRGMIDLARRSGQIASLSARVVREGDEFNFEFGLDEKLIHRPGENEDAPVTHVYAVARLKDGGTQFEVMTRRQIELVRSQSKAGNNGPWVTHWEEMAKKTAIRRLFKYLPVSIEIQRAVSMDEKEPLTIDPADSSVLTGEYSVIDNSEE
Consider B7, for which the “Mean mKate+ (%), DYNLT1” value in the assay with DYNLT1 locus was found to be 8.5333%. The “Mean mKate+ (%), HSP90AA1” value in the assay with HSP90AA1 locus came to 5.5900%.

B8: Homolog_T13: RecT, Salmonella enterica subsp. enterica serovar Javiana str. 10721; SEQ ID NO: 137 (protein, listed as Salmonella enterica)
chain: MPKQPPIAKADLQKTQGARTPTAVKNNNDVISFINQPSMKEQLAAALPRHMTAERMIRIATTEIRKVPALGDCDTMSFVSAIVQCSQLGLEPGGALGHAYLLPFGNRNEKSGKKNVQLIIGYRGMIDLARRSGQIASLSARVVREGDDFSFEFGLEEKLVHRPGENEDAPVTHVYAVARLKDGGTQFEVMTRKQIELVRAQSKAGNNGPWVTHWEEMAKKTAIRRLFKYLPVSIEIQRAVSMDEKETLTIDPADASVITGEYSVVENAGVEENVTA
Take B8: the “Mean mKate+ (%), DYNLT1” value with DYNLT1 locus stood at 9.9567%. The “Mean mKate+ (%), HSP90AA1” value in the assay on HSP90AA1 locus was 5.7200%.
